T1: FcγRIIa R (FcγRIIa, allotype with Arg at position 131), extracellular domain with C-terminal His tag (human, UniProt P12318 34-217)
T1 construct: extracellular domain; also called FcγRIIa R type; 2aR
T1 sequence (looked up): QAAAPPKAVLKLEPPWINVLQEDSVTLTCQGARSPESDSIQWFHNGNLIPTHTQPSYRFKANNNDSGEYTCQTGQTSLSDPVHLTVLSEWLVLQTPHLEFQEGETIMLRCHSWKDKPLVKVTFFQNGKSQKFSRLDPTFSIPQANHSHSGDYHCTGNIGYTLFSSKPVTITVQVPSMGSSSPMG


Target: T1, FcγRIIa R (FcγRIIa, allotype with Arg …)
Assay: SPR (Biacore), antibody captured on antigen peptide chip, FcγR as analyte; relative binding

Binder | He/Con_2aR
GpH7-A5/GpH7-B3 variant Y296_06M/GpL16-k0 (antibody, human IgG1, kappa, also called He Ab) heavy 1: not shown heavy 2: not shown light: DIVMTQSPLSLPVTPGEPASISCQASESLVHSNRNTYLHWYLQKPGQSPQLLIYKVSNRFSGVPDRFSGSGSGTDFTLKISRVEAEDVGVYYCSQNTHVPPTFGQGTKVEIERTVAAPSVFIFPPSDEQLKSGTASVVCLLNNFYPREAKVQWKVDNALQSGNSQESVTEQDSKDSTYSLSSTLTLSKADYEKHKVYACEVTHQGLSSPVTKSFNRGEC | 101 % of GpH7-A5/GpH7-B3/GpL16-k0 (=100)
GpH7-A5/GpH7-B3 variant T335_15Y/GpL16-k0 (antibody, human IgG1, kappa, also called He Ab) heavy 1: not shown heavy 2: not shown light: DIVMTQSPLSLPVTPGEPASISCQASESLVHSNRNTYLHWYLQKPGQSPQLLIYKVSNRFSGVPDRFSGSGSGTDFTLKISRVEAEDVGVYYCSQNTHVPPTFGQGTKVEIERTVAAPSVFIFPPSDEQLKSGTASVVCLLNNFYPREAKVQWKVDNALQSGNSQESVTEQDSKDSTYSLSSTLTLSKADYEKHKVYACEVTHQGLSSPVTKSFNRGEC | 111 % of GpH7-A5/GpH7-B3/GpL16-k0 (=100)
GpH7-A5/GpH7-B3 variant T335_01G/GpL16-k0 (antibody, human IgG1, kappa, also called He Ab) heavy 1: not shown heavy 2: not shown light: DIVMTQSPLSLPVTPGEPASISCQASESLVHSNRNTYLHWYLQKPGQSPQLLIYKVSNRFSGVPDRFSGSGSGTDFTLKISRVEAEDVGVYYCSQNTHVPPTFGQGTKVEIERTVAAPSVFIFPPSDEQLKSGTASVVCLLNNFYPREAKVQWKVDNALQSGNSQESVTEQDSKDSTYSLSSTLTLSKADYEKHKVYACEVTHQGLSSPVTKSFNRGEC | 104 % of GpH7-A5/GpH7-B3/GpL16-k0 (=100)
GpH7-A5/GpH7-B3 variant S337_20W/GpL16-k0 (antibody, human IgG1, kappa, also called He Ab) heavy 1: not shown heavy 2: not shown light: DIVMTQSPLSLPVTPGEPASISCQASESLVHSNRNTYLHWYLQKPGQSPQLLIYKVSNRFSGVPDRFSGSGSGTDFTLKISRVEAEDVGVYYCSQNTHVPPTFGQGTKVEIERTVAAPSVFIFPPSDEQLKSGTASVVCLLNNFYPREAKVQWKVDNALQSGNSQESVTEQDSKDSTYSLSSTLTLSKADYEKHKVYACEVTHQGLSSPVTKSFNRGEC | 110 % of GpH7-A5/GpH7-B3/GpL16-k0 (=100)
GpH7-A5/GpH7-B3 variant T335_18N/GpL16-k0 (antibody, human IgG1, kappa, also called He Ab) heavy 1: not shown heavy 2: not shown light: DIVMTQSPLSLPVTPGEPASISCQASESLVHSNRNTYLHWYLQKPGQSPQLLIYKVSNRFSGVPDRFSGSGSGTDFTLKISRVEAEDVGVYYCSQNTHVPPTFGQGTKVEIERTVAAPSVFIFPPSDEQLKSGTASVVCLLNNFYPREAKVQWKVDNALQSGNSQESVTEQDSKDSTYSLSSTLTLSKADYEKHKVYACEVTHQGLSSPVTKSFNRGEC | 106 % of GpH7-A5/GpH7-B3/GpL16-k0 (=100)
GpH7-A5/GpH7-B3 variant Y296_04F/GpL16-k0 (antibody, human IgG1, kappa, also called He Ab) heavy 1: not shown heavy 2: not shown light: DIVMTQSPLSLPVTPGEPASISCQASESLVHSNRNTYLHWYLQKPGQSPQLLIYKVSNRFSGVPDRFSGSGSGTDFTLKISRVEAEDVGVYYCSQNTHVPPTFGQGTKVEIERTVAAPSVFIFPPSDEQLKSGTASVVCLLNNFYPREAKVQWKVDNALQSGNSQESVTEQDSKDSTYSLSSTLTLSKADYEKHKVYACEVTHQGLSSPVTKSFNRGEC | 109 % of GpH7-A5/GpH7-B3/GpL16-k0 (=100)
GpH7-A5/GpH7-B3 variant T335_10E/GpL16-k0 (antibody, human IgG1, kappa, also called He Ab) heavy 1: not shown heavy 2: not shown light: DIVMTQSPLSLPVTPGEPASISCQASESLVHSNRNTYLHWYLQKPGQSPQLLIYKVSNRFSGVPDRFSGSGSGTDFTLKISRVEAEDVGVYYCSQNTHVPPTFGQGTKVEIERTVAAPSVFIFPPSDEQLKSGTASVVCLLNNFYPREAKVQWKVDNALQSGNSQESVTEQDSKDSTYSLSSTLTLSKADYEKHKVYACEVTHQGLSSPVTKSFNRGEC | 111 % of GpH7-A5/GpH7-B3/GpL16-k0 (=100)
GpH7-A5/GpH7-B3 variant T335_13S/GpL16-k0 (antibody, human IgG1, kappa, also called He Ab) heavy 1: not shown heavy 2: not shown light: DIVMTQSPLSLPVTPGEPASISCQASESLVHSNRNTYLHWYLQKPGQSPQLLIYKVSNRFSGVPDRFSGSGSGTDFTLKISRVEAEDVGVYYCSQNTHVPPTFGQGTKVEIERTVAAPSVFIFPPSDEQLKSGTASVVCLLNNFYPREAKVQWKVDNALQSGNSQESVTEQDSKDSTYSLSSTLTLSKADYEKHKVYACEVTHQGLSSPVTKSFNRGEC | 110 % of GpH7-A5/GpH7-B3/GpL16-k0 (=100)
GpH7-A5/GpH7-B3 variant T335_19Q/GpL16-k0 (antibody, human IgG1, kappa, also called He Ab) heavy 1: not shown heavy 2: not shown light: DIVMTQSPLSLPVTPGEPASISCQASESLVHSNRNTYLHWYLQKPGQSPQLLIYKVSNRFSGVPDRFSGSGSGTDFTLKISRVEAEDVGVYYCSQNTHVPPTFGQGTKVEIERTVAAPSVFIFPPSDEQLKSGTASVVCLLNNFYPREAKVQWKVDNALQSGNSQESVTEQDSKDSTYSLSSTLTLSKADYEKHKVYACEVTHQGLSSPVTKSFNRGEC | 106 % of GpH7-A5/GpH7-B3/GpL16-k0 (=100)
GpH7-A5/GpH7-B3 variant S337_16H/GpL16-k0 (antibody, human IgG1, kappa, also called He Ab) heavy 1: not shown heavy 2: not shown light: DIVMTQSPLSLPVTPGEPASISCQASESLVHSNRNTYLHWYLQKPGQSPQLLIYKVSNRFSGVPDRFSGSGSGTDFTLKISRVEAEDVGVYYCSQNTHVPPTFGQGTKVEIERTVAAPSVFIFPPSDEQLKSGTASVVCLLNNFYPREAKVQWKVDNALQSGNSQESVTEQDSKDSTYSLSSTLTLSKADYEKHKVYACEVTHQGLSSPVTKSFNRGEC | 109 % of GpH7-A5/GpH7-B3/GpL16-k0 (=100)
GpH7-A5/GpH7-B3 variant S337_18N/GpL16-k0 (antibody, human IgG1, kappa, also called He Ab) heavy 1: not shown heavy 2: not shown light: DIVMTQSPLSLPVTPGEPASISCQASESLVHSNRNTYLHWYLQKPGQSPQLLIYKVSNRFSGVPDRFSGSGSGTDFTLKISRVEAEDVGVYYCSQNTHVPPTFGQGTKVEIERTVAAPSVFIFPPSDEQLKSGTASVVCLLNNFYPREAKVQWKVDNALQSGNSQESVTEQDSKDSTYSLSSTLTLSKADYEKHKVYACEVTHQGLSSPVTKSFNRGEC | 107 % of GpH7-A5/GpH7-B3/GpL16-k0 (=100)

Reference: patent US20150344570A1 (published 2015)
